Laboratory results published in US20110086795A1.

Biological target: Myc-tagged Slo1QEERL
Test: cell-based or functional assay

reduction in mean surface expression of Slo1 (cell-surface biotinylation, densitometry): 50%
Substance: HA-tagged Slo1VEDEC
